Experiments:
[1] = target: H2B S112C-MB nucleosome (MB-modified H2B S112C) (Xenopus)
[2] = target: asymmetric nucleosome MB/WT (MB-modified H2A/H2B S112C dimer in the upstream position, WT dimer downstream) (Xenopus) (UniProt P06897)
[3] = target: asymmetric nucleosome WT/MB (WT dimer in the upstream position, MB-modified H2A/H2B S112C dimer downstream) (Xenopus) (UniProt P06897)
[4] = target: H2A G2C-MB nucleosome (100% MB-modified H2A G2C, both H2A N-tails biotinylated) (Xenopus); test: native gel or EMSA; biotin-modified or unmodified nucleosomes (radiolabelled 601 DNA) incubated with streptavidin in TE buffer for 10 min at room temperature, run on 6% native PAGE (legend of Figure 2B: 5%); mobility shift
[5] = target: asymmetric nucleosome MB/WT (MB-modified H2A/H2B S112C dimer in the upstream position, WT dimer downstream) (Xenopus) (UniProt P06897); test: native gel or EMSA; asymmetrically modified nucleosomes on Cy5-labelled DNA incubated with or without streptavidin, 5% acrylamide nucleoprotein gels, imaged by fluorography
[6] = target: asymmetric nucleosome WT/MB (WT dimer in the upstream position, MB-modified H2A/H2B S112C dimer downstream) (Xenopus) (UniProt P06897); test: as above

streptavidin, sequence (P22629 25-183): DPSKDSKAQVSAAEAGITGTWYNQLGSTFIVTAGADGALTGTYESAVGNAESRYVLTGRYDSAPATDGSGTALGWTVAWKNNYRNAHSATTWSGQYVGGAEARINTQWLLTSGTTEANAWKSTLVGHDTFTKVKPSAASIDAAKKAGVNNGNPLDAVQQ

| Substance | rate of HhaI digestion during RSC remodeling, nucleosomes with one streptavidin bound (1SA) against unbound nucleosomes [1] | rate of HhaI digestion during RSC remodeling, nucleosomes with two streptavidins bound (2SA) against the unbound control [1] | fraction of RSC-mobilized, streptavidin-bound nucleosomes protected from Hind III digestion at the downstream end (about 40% without streptavidin) [2] | fraction of RSC-mobilized, streptavidin-bound nucleosomes protected from Hind III digestion at the downstream end (about 40% without streptavidin) [3] | stoichiometry N (streptavidin per nucleosome) [4] | stoichiometry N (streptavidin per nucleosome) [5] | stoichiometry N (streptavidin per nucleosome) [6] |
| --- | --- | --- | --- | --- | --- | --- | --- |
| RSC (Remodels the Structure of Chromatin) complex, yeast (from UniProt P32597 1-1359; Q06168 1-426; Q06488 1-889; Q02206 1-625; Q07979 1-502; Q12406 1-477; Q05123 1-467) | 2 fold slower | 20 fold slower | 80% | 20% |  |  |  |
| streptavidin (from UniProt P22629 25-183) (natural protein) |  |  |  |  | 1 | 1 | 1 |

Reference: paper PMC9561379
